# Assay: yeast display, Sf9 membrane polyspecificity reagent, FACS + sequencing; frameworks hold sequencing errors
# Procedure, shortened: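 Galactose-induced (36–48 hours) yeast carrying a synthetic nanobody display library were exposed to 10% biotinylated, detergent-solubilized Sf9 membrane reagent at 4 °C for 1 hour. FACS followed streptavidin microbead enrichment, using low and high (top ~1%) gates for expression (anti-HA) and reagent binding (streptavidin). Colony PCR, MiSeq 2 × 250 sequencing and CDR-length filtering followed. Labels for polyreactivity reflect the gate of origin.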
row,Sequence,polyreactivity (PSR sort gate)
1,QVQLVESGGGLVQAGGSLRLSCAASGGTFYVYAMGWYRQAPGKERELVAAISTSDGITYYADSVKGRFTISRDNAKNTVYLQMNSLKPEDTAVYYCAAEFFSSFTYAYDYWGQGTQVTVSS,high polyreactivity
2,QVQLVESGGGLVQAGGSLRLSCAASGGTFYVYDMGWYRQTPGKEREFVADINFSTGITYYADSVKGRFTISRDNAKNTVYLQMNSLKPEDTAVYYCNADTAFYVYWYWIYDYWGQGTQVTVSS,high polyreactivity
3,QVQLVESGGGLVQAGGSLRLSCAASGGTFYYNAMGWYRQAPGKERELVAGITQSGGNTYYADSVKGRFTISRDNAKNTDYLQMNSLKPEDTAVYYCAARIRGTWKYGYWGQGTQVTVSS,low polyreactivity
4,QVQLVESGGGLVQAGGSLRLSCAASGGTIAGYAMGWYRQAPGKARELVASISDGGSTNYADSVKGRFTISRDNAKNTVYLQMNSLKPEDTAVYYCAVQGSRTENYDWYYYWGQGTQVTVSS,low polyreactivity
5,QVQLVESGGGLVQAGGSLRLSCAASGGTIGRYTMGWYRQAPGKERELVAAITGRGGSTYYADSVKGRFTISRDNAKNTVYLQMNSLKPEDTAVYYCAAVSNVARMYYWGQGTQVTVSS,high polyreactivity
6,QVQLVESGGGLVQAGGSLRLSCAASGGTIIGYAMGWYRQAPGKERELVAAITSGGSTYYADSVKGRFTISRDNAKNTVYLQMNSLKPEDTAVYYCAKSYGGLGSIYRFYYWGQGTQVTVSS,low polyreactivity
7,QVQLVESGGGLVQAGGSLRLSCAASGGTLAYYAMGWYRQAPGKERELVAAITRSGGSTYYSDSVKGRFTISRDNAKNTVYLQMNSLNPEVTAVYYCAALLAYWKNRWHIEYDYWGQGTQVTVSS,low polyreactivity
8,QVQLVESGGGLVQAGGSLRLSCAASGGTLGLNAMGWYRQAPGKEREFVAAINRSGGSTRYADSVKGRFTISRDNAKNTVYLQMNSLKPEDTAVYSCAAVGYWGPSGRHKSSKYEYWGQGTQVTVSS,high polyreactivity
9,QVQLVESGGGLVQAGGSLRLSCAASGGTSFYAMGWYRQAPGKDRELVAAITRSGGSTYYADSVKGRFTFSRDNAKNTVYLQMNSLKPEDTAVYYCAALSNHGYYIRMDYWGQGTQVTVSS,high polyreactivity
10,QVQLVESGGGLVQAGGSLRLSCAASGGTSIPYAMGWYRQAPGKERELVAAITRSGGRTYYADSVKGRFTISRDNAKNTVYLQMNSLKPEDTAVYYCAAAYYRWGYTVTVIKQFGYWGQGTQVTVSS,high polyreactivity
11,QVQLVESGGGLVQAGGSLRLSCAASGHIFFVNAMGWYRQAPGKERELVAAINSVGSTYYADSVKGRFTISRDNAKNTVYLQMNSLKPEDTAVYYCAADSVYSQRHSWAYEDDYWGQGTQVTVSS,low polyreactivity
12,QVQLVESGGGLVQAGGSLRLSCAASGHIFPTNPMGWYRQAPGKERQLVAVISESVGSTYYADSVKGRFTISRDNAKNTVYLQMNSLKPEDTAVYFCAKQSRYPSLDADYDYWGQGTQVTVSS,low polyreactivity
13,QVQLVESGGGLVQAGGSLRLSCAASGHTFLEYAMGWYRQAPGKESELVASISFSAGSTYYADSVKGRFTISRDNAKNTVYLQLNSLKPEDTALYYCNAEYLYDYYYYWPYWFEFDYWGQGTQVTVSS,high polyreactivity
14,QVQLVESGGGLVQAGGSLRLSCAASGHTLAVKAKGWYRQAPGKERELVAAITRSGVTTSYADSVKGRFTISRDNAQNTFYLQLHSVKPEDTAVSYCAAQLDASYLTGGWRRHYNYWGQGTQVTVSS,low polyreactivity
15,QVQLVESGGGLVQAGGSLRLSCAASGIFDPNAMGWNRQAPRKERELVAAITSGGSTNYADSVKGRFTISRDNAKNTVYLQMNSLKPEDTAVYYCNRVEGRTRWADEMNYWGQGTQLTVSS,low polyreactivity
16,QVQLVESGGGLVQAGGSLRLSCAASGIFFNYMGWYRQAPGKEREFVAAIDYRGGNTFYADSVKGRFTISRDNAKNTVYLQMNSLKPEDTAVYYCARAFGQRRYDYWGQGTQVTVSS,high polyreactivity
17,QVQLVESGGGLVQAGGSLRLSCAASGIFFPNAMGCYRQAPGKERELVAAISWTGGSTFYADSVKGRFTISRDNAKNTVYLQMNSLKPEDTAVYYCAAEEYYAGWTYDYWGQGTQVTVSS,high polyreactivity
18,QVQLVESGGGLVQAGGSLRLSCAASGIFGVNTMGWYRQAPGKERELVASITSGGSTNYADSVKGRFTISRDNAKNTVYLQMNSLKPEDTAVYYCAAGLYLQGPFDYWGQGTQVTVSS,low polyreactivity
19,QVQLVESGGGLVQAGGSLRLSCAASGIFGYNAMGWYIQAPGKERELVAAITSSGTSTYYADSVKGRFTISRDNAKNTVYLQMNSLKPEDTAVYYCAALHSGTWTGYGYWGQGTQVTVSS,low polyreactivity
20,QVQLVESGGGLVQAGGSLRLSCAASGIFSRYAMGWYRQAPGKERELVAAISSGGSTYYADSVKGRFTISRDNAKNTVYLQMNSLKAEDTAVYYCAVKQRDKFAGGRNDYWGQGTQVTVSS,high polyreactivity
21,QVQLVESGGGLVQAGGSLRLSCAASGIFSYYAMGWYRPAPGKERELVAAISSSGGSTYYADSVKGRFTISRDNAMNTVYLQMNSLKPEDTAVYYCNVRNYYNDYYYWGQGTQVTVSS,high polyreactivity

row,Sequence,polyreactivity (PSR sort gate)
1,QVQLVESGGGLVQAGGSLRLSCAASGIFTRYAMGWYRQAPGKERELVAAISRGGGSTYYADSVKGRFTISRDNAKNTVYLQMNSLKPEDTAVYYCNTYKRPRSPGPKFYYWGQGTQVTVSS,high polyreactivity
2,QVQLVESGGGLVQAGGSLRLSCAASGIFVDNAMGWYRQAPGKERELVAAITSSTDSTYYADSVKGRFTISRDNAKNTVYLQMNSLKPEDTAVYYCAVARPGGFYFLVHYGYGYWGQGPQVTVSS,low polyreactivity
3,QVQLVESGGGLVQAGGSLRLSCAASGIIFAGNAMGWYRQAPGKERELVAAISSNGGSTYYADSVKGRFTISRDNAKNYVYLQMNSLKPEDTAVYYCAADRVYWGRVQGYYWGQGTQVTVSS,low polyreactivity
4,QVQLVESGGGLVQAGGSLRLSCAASGIIFAGYAMGWYRQAPGKVRELVAAISGSGGRTYYADSVKGRLTISRDNAKNTVYLQMNSLKPEDTAVSFCAAEGRSEWGGDYYYGGQGTQVTVSS,low polyreactivity
5,QVQLVESGGGLVQAGGSLRLSCAASGIIFANYAMGWYRQAPGKERELVAAITSSGSTYYADSVKGRFTISRDNAKNTVYLQMNSLKPEDTAVYYCAARRRGRFYYWGQGTQVTVSS,high polyreactivity
6,QVQLVESGGGLVQAGGSLRLSCAASGIIFASNAMGWYRQAPGKQRELVATINWTDSSTYYADSVKGRFTISRDNAKNTVYLQMNSLKPEDTAVYYCAVVDVEEHVGHWGQGTQVTVSS,low polyreactivity
7,QVQLVESGGGLVQAGGSLRLSCAASGIIFAYYAMGGYRHAPGKERELVAAISRSGGITYYADSVKGRFSISRDNAKNTVYLQMNSLKPEDTAVYDCARFSSRPYDYWGQGTQVTVSS,high polyreactivity
8,QVQLVESGGGLVQAGGSLRLSCAASGIIFAYYAMGWYRQAPGKERELVAAISRSGGITYYADSVKGRFTISRDNAKNTVYLQMNSLKPEDTAAYYCARYSCRPYDYWGQGTQVTVSS,high polyreactivity
9,QVQLVESGGGLVQAGGSLRLSCAASGIIFAYYAMGWYRQAPGKVRELVASITNTGSTYYADSVKGRFTISRDNAKNTVYLQMNSLKPEDTAVYYCNAVLSSNTKWRYPGDYWGQGTQVTVSS,low polyreactivity
10,QVQLVESGGGLVQAGGSLRLSCAASGIIFAYYAMGWYRQGPGKERELVASITNTGSTYYADSVKGRFTISRDNSKNTVYLQMNSLKPEDTAVYYCNAVLSSNTKWRYPGDYWGQGTQVTVSS,low polyreactivity
11,QVQLVESGGGLVQAGGSLRLSCAASGIIFDFYTMGWYRQAPGKERELVAAINSSGGSTYYADSVKGRFTISRDNAMNTVYLHMNSLKPADTAVYYCNAEYLFFWGQYDYWGQGTQVTVSS,high polyreactivity
12,QVQLVESGGGLVQAGGSLRLSCAASGIIFDINAMGWYRQAPGKERELVAAITTSVDSTYYADSVKGRFTISRDNAKNTVYLQMNRLKPEDTAVYYCAVAFVQFTQYDYWGQGTQVTVSS,low polyreactivity
13,QVQLVESGGGLVQAGGSLRLSCAASGIIFDINAMGWYRQAPGKERELVAAITTSVDSTYYADSVKGRFTISRDNAKNTVYLQMNSLKPEDTAVYYCAVAFVQFTQYDYWGQGTQVTVSS,low polyreactivity
14,QVQLVESGGGLVQAGGSLRLSCAASGIIFDLYAMGWYRQAPGKERELVAAITYGGGSTYYADSVKGRFTISRDNAKHTVYLQMNSLQPEDTAVYYCAAVPRSGMYYWGQGTQVTVSS,high polyreactivity
15,QVQLVESGGGLVQAGGSLRLSCAASGIIFDTNAMGGYRQAPGKERELVATITQRGGTTYYADSVKGRFTISRDNEKYTVYLQMNSLKPEDTAVYYCNAGPVRLPYDSWGQGTQVTVSS,low polyreactivity
16,QVQLVESGGGLVQAGGSLRLSCAASGIIFDWYAMGGYRQAPGKERELVAAITSGGGSTYYADSVKGRFTISRDNAKNSVYLQMNSLKPEDSAVYYCAADYQTIGWGYDYWGQGTQVTVSS,low polyreactivity
17,QVQLVESGGGLVQAGGSLRLSCAASGIIFDYNAMGWYRQAPGKERELVAAISSSGGSTYYADSVKGRFTLSRDNAKNTVYLLMTSLKPEDTAVYYCAAAPRFRGYDYWGQGTQVTVSS,high polyreactivity
18,QVQLVESGGGLVQAGGSLRLSCAASGIIFDYYAMGLYRHAPGKEMELVASISWSGGGTYYADSVKGRFTISRDNAKNTVYLQMNSLKPEDTAVYYCNAGDHFVHWPHVKHKKFDYWGQGTQVTVSS,low polyreactivity
19,QVQLVESGGGLVQAGGSLRLSCAASGIIFDYYAMGWYRQAPGKERELVAAITTAGSTYYADSVKGRFTISRDNAKNTVYLQLNSLNPEDTAVYYCDAYLYSVRLGSYGYWGQGTQVTVSS,high polyreactivity
20,QVQLVESGGGLVQAGGSLRLSCAASGIIFDYYPMGWYRQAPGKERELVAGITRSGGRTYYADSVKGRFTISRDNAKNTVYLQMNSLKPEDTAVYYCAAQRGRRRWGGYWGQGTQVTVSS,high polyreactivity

# — the nanobody polyreactivity screen of Harvey et al. (2022)
